Biological target: T1, WT mouse IL-18 on monoFc scaffold (mouse; human, UniProt P70380 36-192)
T1 construct: mature
Assay: Octet BLI, monoFc scaffold
Experimental: Octet 96red instrument was used to determine affinities of IL18 proteins to BP or receptors. 5-10 ug/ml analyte proteins were used for loading on Sartorius tips (AHC or SA). […] 120-180 s loading, 200 s association and 800 s dissociation were used for kinetics. 3-7 data points were used to calculate affinities.
Several mouse variants were next tested for binding affinity to mouse IL-18R alpha and mouse IL-18BP.

T1 sequence (P70380 other isoform, or with tags, fused parts or gaps): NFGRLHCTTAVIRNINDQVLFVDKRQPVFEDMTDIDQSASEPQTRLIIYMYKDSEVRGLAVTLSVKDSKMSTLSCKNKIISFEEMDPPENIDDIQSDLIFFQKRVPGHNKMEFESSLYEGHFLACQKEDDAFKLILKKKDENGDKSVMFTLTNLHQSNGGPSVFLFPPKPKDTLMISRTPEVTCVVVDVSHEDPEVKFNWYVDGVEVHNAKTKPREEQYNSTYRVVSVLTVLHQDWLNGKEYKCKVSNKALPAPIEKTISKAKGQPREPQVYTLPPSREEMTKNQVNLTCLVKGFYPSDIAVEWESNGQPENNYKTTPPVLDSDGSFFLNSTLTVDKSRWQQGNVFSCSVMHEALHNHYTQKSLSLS

Binder	Kd
mouse IL-18 binding protein (other, UniProt Q9Z0M9 29-193, looked up, also called Mouse IL18BP; Mouse IL-18BP) TSAPQTTATVLTGSSKDPCSSWSPAVPTKQYPALDVIWPEKEVPLNGTLTLSCTACSRFPYFSILYWLGNGSFIEHLPGRLKEGHTSREHRNTSTWLHRALVLEELSPTLRSTNFSCLFVDPGQVAQYHIILAQLWDGLKTAPSPSQETLSSHSPVSRSAGPGVA	2.24 nM
mouse IL-18 receptor alpha (receptor, UniProt Q61098 20-326, looked up, also called Mouse IL18Ra; mouse IL-18R alpha) KSCIHRSQIHVVEGEPFYLKPCGISAPVHRNETATMRWFKGSASHEYRELNNRSSPRVTFHDHTLEFWPVEMEDEGTYISQVGNDRRNWTLNVTKRNKHSCFSDKLVTSRDVEVNKSLHITCKNPNYEELIQDTWLYKNCKEISKTPRILKDAEFGDEGYYSCVFSVHHNGTRYNITKTVNITVIEGRSKVTPAILGPKCEKVGVELGKDVELNCSASLNKDDLFYWSIRKEDSSDPNVQEDRKETTTWISEGKLHASKILRFQKITENYLNVLYNCTVANEEAIDTKSFVLVRKEIPDIPGHVFTG	13.3 nM

— patent US20240182536A1 (MURAL ONCOLOGY, published 2024)
